The results in this text go back to article PMC9381590, “DDX39B drives colorectal cancer progression by promoting the stability and nuclear translocation of PKM2” (Signal Transduction and Targeted Therapy, 2022).

To fix the notation:
B2: purified STUB1 (natural protein, UniProt Q9UNE7 1-303, looked up)
chain: MKGKEEKEGGARLGAGGGSPEKSPSAQELKEQGNRLFVGRKYPEAAACYGRAITRNPLVAVYYTNRALCYLKMQQHEQALADCRRALELDGQSVKAHFFLGQCQLEMESYDEAIANLQRAYSLAKEQRLNFGDDIPSALRIAKKKRWNSIEERRIHQESELHSYLSRLIAAERERELEECQRNHEGDEDDSHVRAQQACIEAKHDKYMADMDELFSQVDEKRKKRDIPDYLCGKISFELMREPCITPSGITYDRKDIEEHLQRVGHFDPVTRSPLTQEQLIPNLAMKEVIDAFISENGWVEDY
notes: STIP1 homology and U-box-containing protein 1 (STUB1); the methods tell only of GST- and His-fused proteins from E. coli BL21 (DE3); source: recombinant, purified

The target in assay [1] is B2. Put plainly: in vitro competitive binding analysis; purified proteins; increasing amounts of DDX39B added to PKM2 (WT or 1-219 aa) and STUB1; western blotting. Particulars: both partners purified. In general terms: A western blot detects proteins with antibodies after separation by electrophoresis.
The target of assay [2] is T1, purified recombinant PKM2 (UniProt P14618 1-531).
T1 construct: pyruvate kinase isoform M2 (PKM2); the methods tell only of GST- and His-fused proteins from E. coli BL21 (DE3); also called PKM2^WT; rPKM2; source: recombinant, purified
The description is as above. Particulars: both partners purified.

T1 sequence (P14618 whole entry, the tested form may be a part, canonical isoform): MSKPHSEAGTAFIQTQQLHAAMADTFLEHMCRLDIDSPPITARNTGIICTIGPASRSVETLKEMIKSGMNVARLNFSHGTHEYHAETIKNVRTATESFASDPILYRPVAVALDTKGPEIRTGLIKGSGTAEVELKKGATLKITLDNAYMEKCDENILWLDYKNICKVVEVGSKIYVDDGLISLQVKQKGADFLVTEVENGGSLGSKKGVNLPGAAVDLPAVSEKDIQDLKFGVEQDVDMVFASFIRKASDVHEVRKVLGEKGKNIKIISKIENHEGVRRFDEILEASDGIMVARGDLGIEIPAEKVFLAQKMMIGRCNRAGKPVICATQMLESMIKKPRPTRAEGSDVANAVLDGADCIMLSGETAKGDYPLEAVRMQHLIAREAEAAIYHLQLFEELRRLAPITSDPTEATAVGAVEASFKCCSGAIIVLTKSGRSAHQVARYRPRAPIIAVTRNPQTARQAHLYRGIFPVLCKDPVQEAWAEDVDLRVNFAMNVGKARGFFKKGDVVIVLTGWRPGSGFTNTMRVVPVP

B1: purified recombinant PKM2 1-219 aa protein (domain or fragment)
chain: not shown
notes: also called PKM2^1–218,219aa; source: recombinant, purified
As for B1, the binding result in assay [1] is “binds”.

As for B2, in assay [2], the binding result is on record as “binds”.
